Patent US20260258146A1 (Regeneron, published 2026)
Each block holds one binder with its values, some of them ahead of it.

Key:
Assay in all cases: cell-based or functional assay
[1] = molecular target: T1, human CD28 on human primary CD3+ T cells (human, UniProt P10747 19-220)
[2] = molecular target: T1, human CD28 on human primary CD3+ T cells; remark: listed apart in the source
[3] = molecular target: T1, human CD28 on human primary CD3+ T cells; remark: listed apart in the source
[4] = molecular target: T1, human CD28 on human primary CD3+ T cells; remark: listed apart in the source

EC50 IL2 release; T cells + HEK293/hCD20/hCD38; bsAb6031 + TAAxCD3 [1]: 0.199 nM | EC50 IL2 release; T cells + MOLP8; bsAb6031 + IgG4^P [1]: 0.653 nM | EC50 IL2 release; T cells + MOLP8; bsAb6031 + TAAxCD3 [1]: 1.02 nM | EC50 IL2 release; T cells + NALM-6/hPD-L1; bsAb6031 + Cemiplimab [2]: 4.39 nM | EC50 IL2 release; T cells + NALM-6/hPD-L1; bsAb6031 + IgG4^P [2]: 2.64 nM | EC50 IL2 release; T cells + NALM-6; bsAb6031 + Cemiplimab [2]: 2.44 nM | EC50 IL2 release; T cells + NALM-6; bsAb6031 + IgG4^P [2]: 1.68 nM | EC50 IFNγ release; T cells + HEK293/hCD20/hCD38; bsAb6031 + TAAxCD3 [3]: 0.294 nM | EC50 IFNγ release; T cells + MOLP8; bsAb6031 + TAAxCD3 [3]: 0.748 nM | EC50 T-cell proliferation; T cells + HEK293/hCD20/hCD38; bsAb6031 + TAAxCD3 [4]: 0.143 nM | EC50 T-cell proliferation; T cells + MOLP8; bsAb6031 + IgG4^P [4]: 0.467 nM
B1: bsAb6031 (bispecific antibody, human IgG4 S228P, kappa)
heavy 1: EVQLVESGGGLVQPGRSLRLSCAASGFTFDDYAMHWVRQAPGKGLEWVSGISWKSDNIGYADSVKGRFTISRDNAKNSLYLQMNSLRAEDTALYYCAKALGGWKFDYYYGMDVWGQGTTVTVSSASTKGPSVFPLAPCSRSTSESTAALGCLVKDYFPEPVTVSWNSGALTSGVHTFPAVLQSSGLYSLSSVVTVPSSSLGTKTYTCNVDHKPSNTKVDKRVESKYGPPCPPCPAPPVAGPSVFLFPPKPKDTLMISRTPEVTCVVVDVSQEDPEVQFNWYVDGVEVHNAKTKPREEQFNSTYRVVSVLTVLHQDWLNGKEYKCKVSNKGLPSSIEKTISKAKGQPREPQVYTLPPSQEEMTKNQVSLTCLVKGFYPSDIAVEWESNGQPENNYKTTPPVLDSDGSFFLYSRLTVDKSRWQEGNVFSCSVMHEALHNHYTQKSLSLSLGK
heavy 2: EVQLVESGGGLVQPGGSLRLSCAASGFTFSRNNMHWVRQAPGKGLEYVSGISSNGGRTYYADSVKGRFTISRDNSKNTLYLQMGGLRAADMAVYFCTRDDELLSFDYWGQGTLVTVSSASTKGPSVFPLAPCSRSTSESTAALGCLVKDYFPEPVTVSWNSGALTSGVHTFPAVLQSSGLYSLSSVVTVPSSSLGTKTYTCNVDHKPSNTKVDKRVESKYGPPCPPCPAPPVAGPSVFLFPPKPKDTLMISRTPEVTCVVVDVSQEDPEVQFNWYVDGVEVHNAKTKPREEQFNSTYRVVSVLTVLHQDWLNGKEYKCKVSNKGLPSSIEKTISKAKGQPREPQVYTLPPSQEEMTKNQVSLTCLVKGFYPSDIAVEWESNGQPENNYKTTPPVLDSDGSFFLYSRLTVDKSRWQEGNVFSCSVMHEALHNRFTQKSLSLSPGK
light: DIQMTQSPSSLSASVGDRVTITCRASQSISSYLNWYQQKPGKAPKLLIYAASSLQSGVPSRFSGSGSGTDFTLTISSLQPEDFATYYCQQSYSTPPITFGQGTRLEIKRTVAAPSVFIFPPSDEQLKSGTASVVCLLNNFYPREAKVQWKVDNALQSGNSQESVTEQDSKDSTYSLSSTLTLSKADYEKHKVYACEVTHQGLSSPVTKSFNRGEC

EC50 IL2 release; T cells + HEK293/hCD20/hCD38; bsAb7945 + IgG4^P [1]: 41.4 nM | EC50 IL2 release; T cells + HEK293/hCD20/hCD38; bsAb7945 + TAAxCD3 [1]: 0.00502 nM | EC50 IL2 release; T cells + MOLP8; bsAb7945 + IgG4^P [1]: 0.00971 nM | EC50 IL2 release; T cells + NALM-6/hPD-L1; bsAb7945 + Cemiplimab [2]: 0.143 nM | EC50 IL2 release; T cells + NALM-6/hPD-L1; bsAb7945 + IgG4^P [2]: 0.169 nM | EC50 IL2 release; T cells + NALM-6; bsAb7945 + Cemiplimab [2]: 0.0981 nM | EC50 IFNγ release; T cells + HEK293/hCD20/hCD38; bsAb7945 + TAAxCD3 [3]: 0.123 nM | EC50 IFNγ release; T cells + MOLP8; bsAb7945 + TAAxCD3 [3]: 0.00424 nM | EC50 T-cell proliferation; T cells + HEK293/hCD20/hCD38; bsAb7945 + IgG4^P [4]: 45.6 nM | EC50 T-cell proliferation; T cells + HEK293/hCD20/hCD38; bsAb7945 + TAAxCD3 [4]: 0.000894 nM
B2: bsAb7945 (bispecific antibody, human IgG4 S228P, kappa)
heavy 1: QVQLVQSGAEVKKPGSSVKVSCKASGGPFRSSSFSWVRQAPGQGLEWMGGIIPILGKTNYAQKFQGRITIVTDESTTTVYMELSSLRSEDTAVFYCVRGSSLFDYWGQGTLVTVSSASTKGPSVFPLAPCSRSTSESTAALGCLVKDYFPEPVTVSWNSGALTSGVHTFPAVLQSSGLYSLSSVVTVPSSSLGTKTYTCNVDHKPSNTKVDKRVESKYGPPCPPCPAPPVAGPSVFLFPPKPKDTLMISRTPEVTCVVVDVSQEDPEVQFNWYVDGVEVHNAKTKPREEQFNSTYRVVSVLTVLHQDWLNGKEYKCKVSNKGLPSSIEKTISKAKGQPREPQVYTLPPSQEEMTKNQVSLTCLVKGFYPSDIAVEWESNGQPENNYKTTPPVLDSDGSFFLYSRLTVDKSRWQEGNVFSCSVMHEALHNHYTQKSLSLSLGK
heavy 2: QVQLQESGPGLVKPSETLSLTCTVSGGSISSYYWSWIRQPPGKGLEWIGYIYYSGITHYNPSLKSRVTISVDTSKIQFSLKLSSVTAADTAVYYCARWGVRRDYYYYGMDVWGQGTTVTVSSASTKGPSVFPLAPCSRSTSESTAALGCLVKDYFPEPVTVSWNSGALTSGVHTFPAVLQSSGLYSLSSVVTVPSSSLGTKTYTCNVDHKPSNTKVDKRVESKYGPPCPPCPAPPVAGPSVFLFPPKPKDTLMISRTPEVTCVVVDVSQEDPEVQFNWYVDGVEVHNAKTKPREEQFNSTYRVVSVLTVLHQDWLNGKEYKCKVSNKGLPSSIEKTISKAKGQPREPQVYTLPPSQEEMTKNQVSLTCLVKGFYPSDIAVEWESNGQPENNYKTTPPVLDSDGSFFLYSRLTVDKSRWQEGNVFSCSVMHEALHNRFTQKSLSLSPGK
light: not shown
